Source: the supplement of paper PMC10567573

B1: CDKN1A (parent)
chain: RRQTSMTDFYHSKRRLIFSKRKP
B2: GMCL1 (parent)
chain: RPDTGDDAAGHGFCYCAGSHKRKR

Variants of: B1
Assay: protein stability index of a GFP-peptide fusion (GPS, HEK-293T) (PSI 1-6); higher = more stable
Conditions: c terminus: native
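Also: lentivirally expressed fusions sorted by FACS into six bins by GFP to DsRed ratio, PSI derived from sequencing read proportions per bin multiplied by bin number.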

Row | Variant | protein stability index
1 | RRQTSMTDFYHSIRRLIFSKRKP | 2.36
2 | RRQTSMTDFYHSFRRLIFSKRKP | 2.44
3 | RRQTSMTDFYHSKRRLAFSKRKP | 2.48
4 | RRQTSMTDFYHSKRRLSFSKRKP | 2.99
5 | RRQTSMTDFYHSKRRLGFSKRKP | 1.79
6 | RRQTSMTDFYHSKRRLPFSKRKP | 3.06
7 | RRQTSMTDFYHSKRRLKFSKRKP | 1.86
8 | RRQTSMTDFYHSKRRLIWSKRKP | 2.28
9 | RRQTSMTDFYHSKRRLIYSKRKP | 2.46
10 | RRQTSMTDFYHSKRRLIDSKRKP | 3.34
11 | RRQTSMTDFYHSKRRLISSKRKP | 3.17
12 | RRQTSMTDFYHSKRRLIPSKRKP | 2.82
13 | RRQTSMTDFYHSKRRLICSKRKP | 1.69
14 | RRQTSMTDFYHSKRRLIFTKRKP | 1.77
15 | RRQTSMTDFYHSKRRLIFKKRKP | 1.91
16 | RRQTSMTDFYHSKRRLIFIKRKP | 2.54
17 | RRQTSMTDFYHSKRRLIFYKRKP | 2.84
18 | RRQTSMTDFYHSKRRLIFHKRKP | 1.53
19 | RRQTSMTDFYHSKRRLIFMKRKP | 2.96
20 | RRQTSMTDFYHSKRRLIFPKRKP | 2.08
21 | RRQTSMTDFYHSKRRLIFFKRKP | 2.44
22 | RRQTSMTDFYHSKRRLIFNKRKP | 1.85

Row | Variant | protein stability index
23 | RRQTSMTDFYHSKRRLIFDKRKP | 1.43
24 | RRQTSMTDFYHSKRRLIFCKRKP | 2.57
25 | RRQTSMTDFYHSKRRLIFLKRKP | 2.33
26 | RRQTSMTDFYHSKRRLIFWKRKP | 1.71
27 | RRQLSMTDFYHSKRRLIFSKRKP | 2.1
28 | RRQKSMTDFYHSKRRLIFSKRKP | 2.26
29 | RRQPSMTDFYHSKRRLIFSKRKP | 2.86
30 | RRQWSMTDFYHSKRRLIFSKRKP | 4.11
31 | RRQVSMTDFYHSKRRLIFSKRKP | 3.23
32 | RRQRSMTDFYHSKRRLIFSKRKP | 1.8
33 | RRQFSMTDFYHSKRRLIFSKRKP | 2.21
34 | RRQESMTDFYHSKRRLIFSKRKP | 3.64
35 | RRQASMTDFYHSKRRLIFSKRKP | 2.23
36 | RRQTSMTDFYHSKRRLIFSFRKP | 2.31
37 | RRQTSMTDFYHSKRRLIFSSRKP | 2.23
38 | RRQTSMTDFYHSKRRLIFSVRKP | 2.1
39 | RRQTSMTDFYHSKRRLIFSMRKP | 1.81
40 | RRQTSMTDFYHSKRRLIFSNRKP | 1.03
41 | RRQTSMTDFYHSKRRLIFSYRKP | 1.9
42 | RRGTSMTDFYHSKRRLIFSKRKP | 3.86
43 | RRKTSMTDFYHSKRRLIFSKRKP | 2.72
44 | ARQTSMTDFYHSKRRLIFSKRKP | 1.71

Row | Variant | protein stability index
45 | ERQTSMTDFYHSKRRLIFSKRKP | 3
46 | QRQTSMTDFYHSKRRLIFSKRKP | 1.72
47 | KRQTSMTDFYHSKRRLIFSKRKP | 2.57
48 | LRQTSMTDFYHSKRRLIFSKRKP | 1.96
49 | IRQTSMTDFYHSKRRLIFSKRKP | 1.98
50 | MRQTSMTDFYHSKRRLIFSKRKP | 2.04
51 | WRQTSMTDFYHSKRRLIFSKRKP | 2.69
52 | FRQTSMTDFYHSKRRLIFSKRKP | 3.44
53 | NRQTSMTDFYHSKRRLIFSKRKP | 2.77
54 | RRQTSMTDFYHSKTRLIFSKRKP | 1.99
55 | RRQTSMTDFYHSKLRLIFSKRKP | 3.27
56 | RRQTSMTDFYHSKARLIFSKRKP | 2.14
57 | RRQTSMTDFYHSKQRLIFSKRKP | 4.01
58 | RRQTSMTDFYHSKSRLIFSKRKP | 1.83
59 | RRQTSMTDFYHSKIRLIFSKRKP | 2.18
60 | RRQTSMTDFYHSKNRLIFSKRKP | 2.75
61 | RRQTSMTDFYHSKWRLIFSKRKP | 3.61
62 | RRQTSMTDFYHSKMRLIFSKRKP | 3.31
63 | RRQTSMTDFYHSKDRLIFSKRKP | 2.81
64 | RRQTSMTDFYHSKCRLIFSKRKP | 2.69
65 | RRQTSMTDFYHSKRRLIFSKAKP | 2.5
66 | RRQTSMTDFYHSKRRLIFSKMKP | 3.37

Row | Variant | protein stability index
67 | RRQTSMTDFYHSKRRLIFSKVKP | 3.09
68 | RRQTSMTDFYHSKRRLIFSKTKP | 3.55
69 | RRQTSMTDFYHSKRRLIFSKGKP | 3.01
70 | RRQTSMTDFYHSKRRLIFSKKKP | 3.61
71 | RRQTSMTDFYHSKRRLIFSKPKP | 2.73
72 | RRQTSMTDFYHSKRRLIFSKQKP | 2.4
73 | RRQTSMTDFYHGKRRLIFSKRKP | 2.07
74 | RRQTSMTDFYHVKRRLIFSKRKP | 2.01
75 | RRQTSMTDFYHFKRRLIFSKRKP | 1.59
76 | RRQTSMTDFYHYKRRLIFSKRKP | 2.15
77 | RRQTSMTDFYHEKRRLIFSKRKP | 2.92
78 | RRQTSMTDFYHIKRRLIFSKRKP | 3.96
79 | RRQTSMTDFYHMKRRLIFSKRKP | 2.75
80 | RRQTSMTDFYHCKRRLIFSKRKP | 2.98
81 | RRQTSMTDFYHWKRRLIFSKRKP | 2.39
82 | RRQTSMEDFYHSKRRLIFSKRKP | 3.61
83 | RRQTSMCDFYHSKRRLIFSKRKP | 1.94
84 | RRQTSMNDFYHSKRRLIFSKRKP | 3.04
85 | RRQTSMFDFYHSKRRLIFSKRKP | 2.06
86 | RRQTSMKDFYHSKRRLIFSKRKP | 2.19
87 | RRQTSMSDFYHSKRRLIFSKRKP | 2.44
88 | RRQTSMWDFYHSKRRLIFSKRKP | 1.87

Variants of: B2
Assay: as above
Conditions: c terminus: a fixed tail appended

Row | Variant | protein stability index
89 | RPDTGDDAAGHGFCYCAGSHKRKY | 3.75
90 | RPDTGDDAAGHGFCYCAGSHKRKP | 3.94
91 | RPDTGDDAAGHGFCYCAGSHKRKV | 3.38
92 | RPDTGDDAAGHGFCYCAGSHKRKN | 3.84
93 | RPDTGDDAAGHGFCYCAGSHKRKM | 2.77
94 | RPDTGDDAAGHGFCYCAGSHKRKT | 3.04
95 | RPDTGDDAAGHGFCYCAGSHKRKS | 3.47
96 | RPDTGDDAAGHGFCYCAGSHKRKQ | 3.35
97 | RPDTGDDAAGHGFCYCAGSHKRKW | 2.87
